# System: Escherichia coli TOP10
# Test: shrunken log2 fold change of peptide-encoding DNA abundance (4.5 h post-induction vs induction); higher = less antimicrobial activity (less host growth inhibition)
# Conditions: time post-induction: 4.5 h; library: site-saturation at positions 5, 18, 19, 20
# 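Note: peptides expressed intracellularly from a pBAD plasmid library in pooled LB shake-flask culture, induced with 0.3% L-arabinose, DNA abundance read by NGS, three biological replicates, DESeq2 with apeglm shrinkage.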
row,Sequence,shrunken log2 fold change
1,RRIRSRPPRLPRPRPRPAQEPRP,0.0123
2,RRIRSRPPRLPRPRPRPAQHPRP,0.0967
3,RRIRSRPPRLPRPRPRPARHPRP,0.277
4,RRIRSRPPRLPRPRPRPASEPRP,-0.00793
5,RRIRSRPPRLPRPRPRPATPPRP,0.373
6,RRIRSRPPRLPRPRPRPAVHPRP,0.0588
7,RRIRSRPPRLPRPRPRPAVQPRP,-0.0326
8,RRIRSRPPRLPRPRPRPAWIPRP,-0.0375
9,RRIRSRPPRLPRPRPRPAWYPRP,-0.3
10,RRIRSRPPRLPRPRPRPAYMPRP,-0.608
11,RRIRSRPPRLPRPRPRPAYQPRP,-0.151
12,RRIRSRPPRLPRPRPRPCAMPRP,-0.173
13,RRIRSRPPRLPRPRPRPCCCPRP,-0.000964
14,RRIRSRPPRLPRPRPRPCDKPRP,-0.324
15,RRIRSRPPRLPRPRPRPCESPRP,-0.0178
16,RRIRSRPPRLPRPRPRPCFAPRP,0.598
17,RRIRSRPPRLPRPRPRPCFHPRP,-0.749
18,RRIRSRPPRLPRPRPRPCGFPRP,-0.0141
19,RRIRSRPPRLPRPRPRPCHRPRP,-0.0558
20,RRIRSRPPRLPRPRPRPCHVPRP,-0.0349
21,RRIRSRPPRLPRPRPRPCIRPRP,-0.416
22,RRIRSRPPRLPRPRPRPCLIPRP,-0.197
23,RRIRSRPPRLPRPRPRPCNEPRP,-1.09
24,RRIRSRPPRLPRPRPRPCNLPRP,-0.561
25,RRIRSRPPRLPRPRPRPCNTPRP,-0.324

row,Sequence,shrunken log2 fold change
1,RRIRSRPPRLPRPRPRPCPRPRP,0.056
2,RRIRSRPPRLPRPRPRPCQKPRP,0.185
3,RRIRSRPPRLPRPRPRPCRRPRP,-0.241
4,RRIRSRPPRLPRPRPRPCRTPRP,-0.2
5,RRIRSRPPRLPRPRPRPCSMPRP,-0.441
6,RRIRSRPPRLPRPRPRPCVQPRP,-0.0792
7,RRIRSRPPRLPRPRPRPCWYPRP,-0.393
8,RRIRSRPPRLPRPRPRPCYPPRP,-0.264
9,RRIRSRPPRLPRPRPRPDANPRP,0.183
10,RRIRSRPPRLPRPRPRPDAQPRP,0.406
11,RRIRSRPPRLPRPRPRPDCDPRP,0.152
12,RRIRSRPPRLPRPRPRPDCNPRP,0.265
13,RRIRSRPPRLPRPRPRPDCTPRP,0.038
14,RRIRSRPPRLPRPRPRPDDDPRP,-0.0062
15,RRIRSRPPRLPRPRPRPDDEPRP,0.0222
16,RRIRSRPPRLPRPRPRPDGWPRP,0.278
17,RRIRSRPPRLPRPRPRPDHCPRP,-0.0225
18,RRIRSRPPRLPRPRPRPDHHPRP,-0.868
19,RRIRSRPPRLPRPRPRPDIGPRP,-0.113
20,RRIRSRPPRLPRPRPRPDKHPRP,-0.402
21,RRIRSRPPRLPRPRPRPDKVPRP,0.151
22,RRIRSRPPRLPRPRPRPDLCPRP,-0.159
23,RRIRSRPPRLPRPRPRPDMWPRP,-0.409
24,RRIRSRPPRLPRPRPRPDNRPRP,-0.00987
25,RRIRSRPPRLPRPRPRPDPPPRP,0.746

row,Sequence,shrunken log2 fold change
1,RRIRSRPPRLPRPRPRPDPYPRP,-0.312
2,RRIRSRPPRLPRPRPRPDQMPRP,0.049
3,RRIRSRPPRLPRPRPRPDQTPRP,0.0249
4,RRIRSRPPRLPRPRPRPDRQPRP,-0.0702
5,RRIRSRPPRLPRPRPRPDSEPRP,0.139
6,RRIRSRPPRLPRPRPRPDVHPRP,-0.0954
7,RRIRSRPPRLPRPRPRPDWEPRP,-0.0106
8,RRIRSRPPRLPRPRPRPDWHPRP,-0.195
9,RRIRSRPPRLPRPRPRPDWLPRP,0.153
10,RRIRSRPPRLPRPRPRPDWRPRP,0.132
11,RRIRSRPPRLPRPRPRPECYPRP,0.133
12,RRIRSRPPRLPRPRPRPEDWPRP,0.802
13,RRIRSRPPRLPRPRPRPEERPRP,0.826
14,RRIRSRPPRLPRPRPRPEFRPRP,0.15
15,RRIRSRPPRLPRPRPRPEHCPRP,-0.0141
16,RRIRSRPPRLPRPRPRPEHLPRP,-0.258
17,RRIRSRPPRLPRPRPRPEIDPRP,0.166
18,RRIRSRPPRLPRPRPRPEKCPRP,-0.0875
19,RRIRSRPPRLPRPRPRPEKHPRP,-0.211
20,RRIRSRPPRLPRPRPRPEKRPRP,-0.0813
21,RRIRSRPPRLPRPRPRPENLPRP,0.026
22,RRIRSRPPRLPRPRPRPEQKPRP,0.0179
23,RRIRSRPPRLPRPRPRPEQRPRP,-0.011
24,RRIRSRPPRLPRPRPRPEQTPRP,0.709
25,RRIRSRPPRLPRPRPRPERKPRP,-0.0872

row,Sequence,shrunken log2 fold change
1,RRIRSRPPRLPRPRPRPESTPRP,0.0707
2,RRIRSRPPRLPRPRPRPETRPRP,0.192
3,RRIRSRPPRLPRPRPRPEVCPRP,0.11
4,RRIRSRPPRLPRPRPRPEWRPRP,0.478
5,RRIRSRPPRLPRPRPRPFCGPRP,-0.201
6,RRIRSRPPRLPRPRPRPFCIPRP,-0.316
7,RRIRSRPPRLPRPRPRPFDDPRP,-0.0842
8,RRIRSRPPRLPRPRPRPFEEPRP,-0.345
9,RRIRSRPPRLPRPRPRPFHLPRP,-0.321
10,RRIRSRPPRLPRPRPRPFHTPRP,-0.232
11,RRIRSRPPRLPRPRPRPFIGPRP,-1.15
12,RRIRSRPPRLPRPRPRPFKWPRP,-0.24
13,RRIRSRPPRLPRPRPRPFLNPRP,-1.03
14,RRIRSRPPRLPRPRPRPFMIPRP,-0.184
15,RRIRSRPPRLPRPRPRPFPDPRP,-0.319
16,RRIRSRPPRLPRPRPRPFPKPRP,0.107
17,RRIRSRPPRLPRPRPRPFPNPRP,-0.133
18,RRIRSRPPRLPRPRPRPFQDPRP,-0.01
19,RRIRSRPPRLPRPRPRPFQIPRP,0.0213
20,RRIRSRPPRLPRPRPRPFQLPRP,-0.0513
21,RRIRSRPPRLPRPRPRPFQTPRP,-0.266
22,RRIRSRPPRLPRPRPRPFRFPRP,-0.21
23,RRIRSRPPRLPRPRPRPFRRPRP,-0.261
24,RRIRSRPPRLPRPRPRPFSWPRP,-0.197
25,RRIRSRPPRLPRPRPRPFTYPRP,-0.0179

row,Sequence,shrunken log2 fold change
1,RRIRSRPPRLPRPRPRPFVLPRP,-0.215
2,RRIRSRPPRLPRPRPRPFVPPRP,-0.27
3,RRIRSRPPRLPRPRPRPFVVPRP,-0.0648
4,RRIRSRPPRLPRPRPRPFVYPRP,-0.368
5,RRIRSRPPRLPRPRPRPFWRPRP,0.0559
6,RRIRSRPPRLPRPRPRPGAIPRP,0.187
7,RRIRSRPPRLPRPRPRPGCCPRP,0.396
8,RRIRSRPPRLPRPRPRPGDPPRP,0.353
9,RRIRSRPPRLPRPRPRPGDQPRP,0.0164
10,RRIRSRPPRLPRPRPRPGFDPRP,0.455
11,RRIRSRPPRLPRPRPRPGIMPRP,-0.334
12,RRIRSRPPRLPRPRPRPGINPRP,0.00688
13,RRIRSRPPRLPRPRPRPGIPPRP,-0.00461
14,RRIRSRPPRLPRPRPRPGKVPRP,-0.0472
15,RRIRSRPPRLPRPRPRPGLWPRP,0.266
16,RRIRSRPPRLPRPRPRPGMWPRP,0.0949
17,RRIRSRPPRLPRPRPRPGNSPRP,0.0554
18,RRIRSRPPRLPRPRPRPGPKPRP,1.07
19,RRIRSRPPRLPRPRPRPGQDPRP,-0.329
20,RRIRSRPPRLPRPRPRPGQLPRP,-0.17
21,RRIRSRPPRLPRPRPRPGQSPRP,0.153
22,RRIRSRPPRLPRPRPRPGQYPRP,-0.113
23,RRIRSRPPRLPRPRPRPGRFPRP,0.406
24,RRIRSRPPRLPRPRPRPGSFPRP,0.209
25,RRIRSRPPRLPRPRPRPGSNPRP,-0.00709

row,Sequence,shrunken log2 fold change
1,RRIRSRPPRLPRPRPRPGSYPRP,-0.0952
2,RRIRSRPPRLPRPRPRPGTIPRP,-0.263
3,RRIRSRPPRLPRPRPRPGVDPRP,0.334
4,RRIRSRPPRLPRPRPRPGVPPRP,0.318
5,RRIRSRPPRLPRPRPRPGVQPRP,-0.0497
6,RRIRSRPPRLPRPRPRPGYKPRP,-0.084
7,RRIRSRPPRLPRPRPRPHAIPRP,-0.144
8,RRIRSRPPRLPRPRPRPHARPRP,0.0679
9,RRIRSRPPRLPRPRPRPHCQPRP,-0.159
10,RRIRSRPPRLPRPRPRPHDTPRP,-0.156
11,RRIRSRPPRLPRPRPRPHGTPRP,-0.161
12,RRIRSRPPRLPRPRPRPHIDPRP,-0.369
13,RRIRSRPPRLPRPRPRPHILPRP,-0.0674
14,RRIRSRPPRLPRPRPRPHIWPRP,-0.442
15,RRIRSRPPRLPRPRPRPHKAPRP,-0.1
16,RRIRSRPPRLPRPRPRPHLLPRP,-0.097
17,RRIRSRPPRLPRPRPRPHNFPRP,-0.49
18,RRIRSRPPRLPRPRPRPHNMPRP,-0.798
19,RRIRSRPPRLPRPRPRPHPIPRP,-0.214
20,RRIRSRPPRLPRPRPRPHPTPRP,0.129
21,RRIRSRPPRLPRPRPRPHPVPRP,0.12
22,RRIRSRPPRLPRPRPRPHQHPRP,-0.321
23,RRIRSRPPRLPRPRPRPHQKPRP,-0.189
24,RRIRSRPPRLPRPRPRPHRIPRP,-0.706
25,RRIRSRPPRLPRPRPRPHRYPRP,-0.606
